Reference: patent US20220033501A1 (SHANGHAI PHARMAEXPLORER, published 2022)

T1: human TIM-3 protein on human PBMC (human, UniProt Q8TDQ0 22-301)
T1 sequence: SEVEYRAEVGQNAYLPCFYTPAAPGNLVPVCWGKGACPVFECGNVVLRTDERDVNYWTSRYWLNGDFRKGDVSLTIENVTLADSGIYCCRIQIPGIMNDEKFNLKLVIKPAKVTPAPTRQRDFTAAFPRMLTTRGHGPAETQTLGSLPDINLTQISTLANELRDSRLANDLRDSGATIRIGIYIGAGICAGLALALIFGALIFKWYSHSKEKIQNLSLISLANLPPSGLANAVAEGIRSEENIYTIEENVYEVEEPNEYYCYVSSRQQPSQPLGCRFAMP

T2: human TIM-3 ECD (antigen protein of the affinity test) (human, UniProt Q8TDQ0 22-200)
T2 sequence: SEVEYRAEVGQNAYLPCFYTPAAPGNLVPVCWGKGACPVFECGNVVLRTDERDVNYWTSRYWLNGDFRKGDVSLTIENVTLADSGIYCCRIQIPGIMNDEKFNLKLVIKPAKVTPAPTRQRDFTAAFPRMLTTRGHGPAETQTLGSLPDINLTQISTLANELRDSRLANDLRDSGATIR

T3: murine TIM-3 protein with hFc tag (mTIM-3-hFc protein) (mouse; human, UniProt Q8VIM0 29-191)
T3 construct: Made in HEK293 cells; also called mouse TIM-3 extracellular domain protein; not shown: human IgG Fc fragment (hFc) of the pCpC vector
T3 chain: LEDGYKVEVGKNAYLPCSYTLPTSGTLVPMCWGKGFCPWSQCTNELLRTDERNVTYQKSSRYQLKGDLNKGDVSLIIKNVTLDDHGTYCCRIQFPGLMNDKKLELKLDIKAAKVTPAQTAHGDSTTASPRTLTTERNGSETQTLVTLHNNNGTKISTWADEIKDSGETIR


Key:
[1] = target: T1, human TIM-3 protein on human PBMC; assay: cell-based or functional assay
[2] = target: T2, human TIM-3 ECD (antigen protein of the …); assay: AHC sensor kinetics, antibody captured on sensor, antigen protein in solution, global 1:1 fit
Method: First, AHC sensor was selected, and the sensor was balanced with buffer solution for 10 min, then the antibody to be tested was diluted to 5 μg/ml with buffer solution, and the antibody was solidified with the sensor for 3-5 min, with a signal value of 1-2 nm. The sensor was balanced again with buffer solution for 3 minutes, and then the antigen protein was diluted to 100 nM (the highest concentration was tentatively 100 nM) to bind and dissociate the antibody coupled by the sensor. If enough signal value was obtained, the antigen protein was diluted by several concentration gradients to analyze the binding and dissociation of antibody and antigen. At that end of each cycle, the sensor surface was regenerated with 10 mM, pH 1.5 Glycine. The kinetic rate constant needed to be subtracted the blank control, and the data was fitted with the global fit analysis method 1:1 combination model. The dissociation equilibrium rate constant (KD) was calculated according to the following formula: KD=kd/ka.

[3] = target: T3, murine TIM-3 protein with hFc tag …; assay: ELISA, coated mTIM-3-hFc

Row | Binder | IFN-γ production, lymphocyte activation assay (donor Y), antibody 0.1 µg/ml, N = 1 [1] | IFN-γ production, lymphocyte activation assay (donor Y), antibody 0.1 µg/ml, N = 2 [1] | IFN-γ production, lymphocyte activation assay (donor Y), antibody 1 µg/ml, N = 1 [1] | IFN-γ production, lymphocyte activation assay (donor Y), antibody 1 µg/ml, N = 2 [1] | IFN-γ production, lymphocyte activation assay (donor Y), antibody 10 µg/ml, N = 1 [1] | IFN-γ production, lymphocyte activation assay (donor Y), antibody 10 µg/ml, N = 2 [1] | IFN-γ production, lymphocyte activation assay (donor Y), antibody concentration head printed '0' (fifth), N = 1 [1] | IFN-γ production, lymphocyte activation assay (donor Y), antibody concentration head printed '0' (fifth), N = 2 [1] | IFN-γ production, lymphocyte activation assay (donor Y), antibody concentration head printed '0' (fourth), N = 1 [1] | IFN-γ production, lymphocyte activation assay (donor Y), antibody concentration head printed '0' (fourth), N = 2 [1] | Kd [2] | koff [2] | kon [2] | binding result [3]
1 | fully human TIM-3 antibody 7A4F10 (antibody, human IgG4, V domains shown, also called antibody number 1) VH: EVQLLESGGGLVQPGGSLRLSCAASGFTFRTHLISWVRQAPGKGLEWVAAITGSGGSTYYADSVKGRFIISRDNSKNTLFLQMNSLRAEDTAVYYCAKDGGSGSYDDFWGQGTLVTVSS VL: ETVLTQSPVTLSLSPGERATLSCRASQSVGSYLAWYQQKPGQAPRLLIYDASNRATGIPARFSGSGSGTDFTLTISSLEPEDFAVYYCQQRSNWPPTFGQGTKVEIK | 3150 pg/mL | 3220 pg/mL | 3330 pg/mL | 3220 pg/mL | 3340 pg/mL | 3890 pg/mL | 2180 pg/mL | 2090 pg/mL | 2250 pg/mL | 2160 pg/mL | 1.01 nM | 0.00113 s⁻¹ | 1.11e+06 M⁻¹ s⁻¹ | –
2 | fully human TIM-3 antibody 18D2H2 (antibody, human IgG4, V domains shown, also called antibody number 2) VH: EVQLVESGGDLVQPGGSLRLSCAASGFTFSTYWMTWVRQAPGRGLEWVANIKQDGSAKYYVDSVKGRFTLSRDDAKNSLYLQMNSLRAEDTAVYYCARGSNWFDYWGQGTLVTVSS VL: ETVMTQSPATLSVSPGERATLSCRANQNVYSNLAWYQQKPGQAPRLLIYDASTRATGFPARFSGSGSGTEFTLTISSLQSEDFAVYYCQQYNNWPLTFGGGTKVEIK | 2540 pg/mL | 2750 pg/mL | 3110 pg/mL | 2860 pg/mL | 3050 pg/mL | 3130 pg/mL | 2130 pg/mL | 2050 pg/mL | 2200 pg/mL | 2240 pg/mL | 2.58 nM | 0.00313 s⁻¹ | 1.22e+06 M⁻¹ s⁻¹ | –
3 | fully human TIM-3 antibody 39E5H1 (antibody, human IgG4, V domains shown, also called antibody number 6) VH: EVQLVESGGGLVQPGGSLRLSCAASGFTFSSYWMSWVRQAPGKGLEWVANIKRGGSERYYVDSVKGRFTISGDNAKNSVYLQMNSLRAEDTAVYYCARGSNWFDPWGQGTLVTVSS VL: ETVMTQSPAILSVSPGERATLSCRASQSVYSNLAWYQQKLGQAPRLLIYDASTRATGIPARFSGSGSGTEFTLTISSLQSEDFAVYYCQQYNNWPITFGQGTRLEIK | 2710 pg/mL | 2710 pg/mL | 3400 pg/mL | 3600 pg/mL | 3500 pg/mL | 4120 pg/mL | 1840 pg/mL | 2100 pg/mL | 2090 pg/mL | 1950 pg/mL | 1.46 nM | 0.00155 s⁻¹ | 1.06e+06 M⁻¹ s⁻¹ | –
4 | fully human TIM-3 antibody 34B6D8 (antibody, human IgG4, V domains shown, also called antibody number 5) VH: EVQLVESGGGLVQPGGSLRLSCAASGFTFSTYWMTWVRQAPGKRLEWVANIKQGGGDKYYVDSVKGRFTISTDNAKNSLYLQMNSLRAEDTAVYYCARGSNWFDPWGQGTLVTVSS VL: EIVMTQSPATLSMSPGERATLSCRASQSVYDNLAWYQQKPGQAPRLLIYGASTRATGIPARFSGSGSGTEFTLTISSLQSEDFALYYCQQYTHWPITFGQGTRLEIK | 2890 pg/mL | 2900 pg/mL | 3050 pg/mL | 3830 pg/mL | 3520 pg/mL | 3630 pg/mL | 1820 pg/mL | 2040 pg/mL | 2130 pg/mL | 2300 pg/mL | 1.05 nM | 0.0012 s⁻¹ | 1.15e+06 M⁻¹ s⁻¹ | –

Continued, values first:

Row | IFN-γ production, lymphocyte activation assay (donor Y), antibody 0.1 µg/ml, N = 1 [1] | IFN-γ production, lymphocyte activation assay (donor Y), antibody 0.1 µg/ml, N = 2 [1] | IFN-γ production, lymphocyte activation assay (donor Y), antibody 1 µg/ml, N = 1 [1] | IFN-γ production, lymphocyte activation assay (donor Y), antibody 1 µg/ml, N = 2 [1] | IFN-γ production, lymphocyte activation assay (donor Y), antibody 10 µg/ml, N = 1 [1] | IFN-γ production, lymphocyte activation assay (donor Y), antibody 10 µg/ml, N = 2 [1] | IFN-γ production, lymphocyte activation assay (donor Y), antibody concentration head printed '0' (fifth), N = 1 [1] | IFN-γ production, lymphocyte activation assay (donor Y), antibody concentration head printed '0' (fifth), N = 2 [1] | IFN-γ production, lymphocyte activation assay (donor Y), antibody concentration head printed '0' (fourth), N = 1 [1] | IFN-γ production, lymphocyte activation assay (donor Y), antibody concentration head printed '0' (fourth), N = 2 [1] | Kd [2] | koff [2] | kon [2] | binding result [3] | Binder
5 | 2600 pg/mL | 2340 pg/mL | 3320 pg/mL | 2560 pg/mL | 3140 pg/mL | 2790 pg/mL | 2380 pg/mL | 2070 pg/mL | 1990 pg/mL | 2000 pg/mL | 0.133 nM | 0.000128 s⁻¹ | 965000 M⁻¹ s⁻¹ | – | fully human TIM-3 antibody 215A8F2 (antibody, human IgG4, V domains shown, also called antibody number 4) VH: QVQLQQWGAGLLKPSETLSLTCTVYGGSFSGYYWNWIRQPPGKGLEWLGEINHSGSTNYNPSLKRRVTISVDTSKNQFSLKLSSVTAADTAVYYCARVYYYGPFDFWGQGTLVTVSS VL: not shown
6 | – | – | – | – | – | – | – | – | – | – | – | – | – | no binding (tested: 66.667 nM) | 34B6D8 fully human TIM-3 antibody (human IgG4, kappa) (antibody, V domains shown) VH: EVQLVESGGGLVQPGGSLRLSCAASGFTFSTYWMTWVRQAPGKRLEWVANIKQGGGDKYYVDSVKGRFTISTDNAKNSLYLQMNSLRAEDTAVYYCARGSNWFDPWGQGTLVTVSS VL: EIVMTQSPATLSMSPGERATLSCRASQSVYDNLAWYQQKPGQAPRLLIYGASTRATGIPARFSGSGSGTEFTLTISSLQSEDFALYYCQQYTHWPITFGQGTRLEIK
7 | 2220 pg/mL | 2550 pg/mL | 3200 pg/mL | 3230 pg/mL | 3400 pg/mL | 3910 pg/mL | 1810 pg/mL | 2120 pg/mL | 2030 pg/mL | 2260 pg/mL | 4.05 nM | 0.00483 s⁻¹ | 1.19e+06 M⁻¹ s⁻¹ | – | fully human TIM-3 antibody 134H3G6 (antibody, human IgG4, V domains shown, also called antibody number 3) VH: EVQLVESGGGLVQPGGSLRLSCAASGFTFSNSWMTWVRQAPGKGLEWVANIKQAGTEKYYVDSVKGRFTISRDNAKNSLYLQMNSLRAEDTAVYYCNSGSNYFDYWGQGTLVTVSS VL: EIVMTQSPATLSVSPGERATLSCRARQNFYSNLAWYQQKPGQAPRLLIYGASTRATGIPARFSGSGSGTEFTLTISSLQSEDFAVYYCQQYNNWPLTFGGGTKVEIK
8 | 3210 pg/mL | 2870 pg/mL | 3550 pg/mL | 3610 pg/mL | 3960 pg/mL | 3660 pg/mL | 2150 pg/mL | 2100 pg/mL | 2310 pg/mL | 2050 pg/mL | 2.48 nM | 0.00397 s⁻¹ | 1.6e+06 M⁻¹ s⁻¹ | – | fully human TIM-3 antibody 57F4E5 (antibody, human IgG4, V domains shown, also called antibody number 7) VH: EVQLVESGGGLVQPGGSLRLSCAASGFTFSSYWMSWVRQAPGKGLEWVANIKQDGSEKYYVDSVKGRFTISRDSAKNSLYLQMNSLRAEDTAMYFCARDSNFFDYWGQGTLVTVSS VL: ETVMTQSPATLSVSPGERATLSCRASQSVSSNLAWYQRKPGQAPRLLIYFSSTRATGIPARFSGSGSGTEFTLTISSLQSEDFAVYYCQQYNNWPLTFGGGTKVEIK
